Measurements: PMC3075957 (Nature structural & molecular biology, 2011)

Columns and labels:
K2Q23K2 [1] = test: seeded elongation kinetics
K2Q23K2 [2] = test: sedimentation assay with HPLC
K2Q23K2 [3] = molecular target: K2Q23K2
K2Q23K2 [4] = test: sedimentation assay with HPLC of the supernatant
[5] = molecular target: the molecule itself; test: sedimentation assay with HPLC of the supernatant
[6] = Aggregation time course by HPLC sedimentation assay; type: physicochemical; conditions: comparable concentrations, PBS 37 °C
[7] = Dynamic light scattering of aggregation reactions; type: physicochemical; conditions: 166 μM, PBS 37 °C, different incubation times
[8] = Electron microscopy of end-stage aggregates; type: physicochemical; conditions: PBS 37 °C, uniform smooth-sided fibrils

For K2Q23K2 (peptide), which kon (K2Q23K2 [1]) is on record?
The kon was 12400 M⁻¹ s⁻¹.

And the critical concentration (Cr) of monomer in equilibrium with fibrils (K2Q23K2 [2])?
The critical concentration (Cr) of monomer in equilibrium with fibrils was 3 µM.

What about the loss of monomer within two hours (215 μM) (K2Q23K2 [3]) of the same molecule?
The loss of monomer within two hours (215 μM) was under 1%.

And the n* (critical nucleus size of aggregation) (K2Q23K2 [4])?
The n* (critical nucleus size of aggregation) was 3.9.

And the nucleation equilibrium constant Kn* (monomers to tetrameric nucleus) (K2Q23K2 [4])?
Its nucleation equilibrium constant Kn* (monomers to tetrameric nucleus) is 0.076 l^3/mol^3.

And the percent aggregation (215 μM, 27 hrs) (K2Q23K2 [4])?
The percent aggregation (215 μM, 27 hrs) was 5%.

For KKQQQQQQQQQQQQQQQQQQQQQQQQQKK [K2Q25K2], which “n* (critical nucleus size of aggregation)” value [5] is on record?
Its value is 2.

Which “n* (critical nucleus size of aggregation)” value [5] does the source give for KKQQQQQQQQQQQQQQQQQQQQQQQQQQQQQQQQQQQQQKK [K2Q37K2] here?
Its value is 0.7.

B1: SFQ37P10K2 (peptide)
peptide: SFQQQQQQQQQQQQQQQQQQQQQQQQQQQQQQQQQQQQQPPPPPPPPPPKK
Which “n* (critical nucleus size of aggregation)” value [5] does the source give for B1 here?
Its value is 1.

B2: AT7^NTQ30K2: peptide consisting of the AT7^NT sequence (29 amino acid N-terminus of ataxin-7) followed by a Q30K2 sequence (peptide)
peptide: MSERAADDVRGEPRRAAAAAGGAAAAAARQQQQQQQQQQQQQQQQQQQQQQQQQQQQQQKK
With B2 as the molecule, how does the “Aggregation rate compared with K2Q30K2” value [6] read?
Its value is “aggregates somewhat slower than K2Q30K2”.

And the “Aggregate formation by DLS versus sedimentation assay” value [7]?
Its value is “no aggregate formation that was not detected by the sedimentation assay”.

And the “Fibril diameter by electron microscopy” value [8]?
The value was about 10 nm.

Which “n* (critical nucleus size of aggregation)” value [5] does the source give for KKQQQQQQQQQQQQQQQQQQQQQQQQKK [K2Q24K2] here?
Its value is 3.3.
